Measured values from the supplement of paper PMC9170038.

Test system: MS2 coat protein
Assay: apparent KD of MS2 coat protein; designed switch direction (-1 OFF switch, 1 ON switch): -1; higher = weaker reporter binding
Summary of the method: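 Transcription of designed RNA switches on Illumina chips was done by stalled E. coli RNA polymerase. SNAP-549-labelled MS2 coat protein was then titrated in doubling steps from 0.7 or 1.5 nM to 3 µM, with steps of 0.8–1.5 h at the lowest and 10–20 min at the highest concentration. The per-design median over clusters of curve-fitted normalised fluorescence is reported as apparent KD.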

[1] = input ligand: microRNA oligo, concentration not stated
[2] = Eterna round: R95, input ligand: FMN 200 uM
[3] = Eterna round: R95, input ligand: microRNA oligo, concentration not stated
[4] = Eterna round: R95, input ligand: none

| Sequence | apparent KD of MS2 coat protein (input ligand: FMN 200 uM) | apparent KD of MS2 coat protein [1] | apparent KD of MS2 coat protein (input ligand: none) | apparent KD of MS2 coat protein [2] | apparent KD of MS2 coat protein [3] | apparent KD of MS2 coat protein [4] |
| --- | --- | --- | --- | --- | --- | --- |
| ACAAAGGACAUGAGGAUCACCCAUGUGGUGCACAAGUCCAGCAAGGAUAUCCAAGUCCCAUAAACGGAGAAGGUGCAUAAUAAG [Inesxeed] (Eterna round: R96, puzzle: Exclusion NG 3) | 283 nM | 86.6 nM | 113 nM | – | – | – |
| ACAAGCUAACUCAUAUCUUACAUGAGGAUCACCCAUGUUUUUUCAAUUUUGUUUGGUCUCCUUUGUGCUCGUCUUAU [JR_STOV1_Sub052] (Eterna round: R97, puzzle: Sensor, turn-off variant 1) | 66 nM | – | 64.9 nM | – | – | – |
| ACAAGCUUGUAAUCAUUUAACAUGAGGAUCACCCAUGUAAAUGGAAGAACCAAUUUGAUAUGAUUUACUCGUCUUAU [JR_STOV1_Sub009] (Eterna round: R97, puzzle: Sensor, turn-off variant 1) | 257 nM | – | 267 nM | – | – | – |
| ACAAGCUUUACGAUCCUCUACAUGAGGAUCACCCAUGUGCUCGUAUUGUUUAGUACUAUCACGAAAGUGAUAGUACA [Sensor, turn off variant 1 v.5] (Eterna round: R97, puzzle: Sensor, turn-off variant 1) | 467 nM | – | 1090 nM | – | – | – |
| ACAAGCUUUGUUGUGGGUGACAUGAGGAUCACCCAUGUUUGCCACGUCUUGUGGGCCCGGGCCCGCGGCCCGGGCCC [-42.9, -63.9, A 13%] (Eterna round: R97, puzzle: Sensor, turn-off variant 1) | 50.3 nM | – | 55.1 nM | – | – | – |
| ACAAGCUUUUAGAUUCUUAACAUGAGGAUCACCCAUGUGCUCGUCUUAUUGGCCGGCGGGCCGCCGGAAAAGCUUGU (Eterna round: R97, puzzle: Sensor, turn-off variant 1) | 283 nM | – | 408 nM | – | – | – |
| ACAAGCUUUUUGUUCGUCUUAUAAUAAUAAAUAAAGAUAACAUGAGGAUCACCCAUGUAACAAAGACGGCCUCAUGU [Sesor Array 19 - Jieux - Sensor v3, turn-off variant 2] (puzzle: Sensor v3, turn-off variant 2) | – | – | – | 166 nM | 11.7 nM | 112 nM |
| ACAAGCUUUUUGUUCGUCUUAUACACUCCUAAUAAGACAACAUGAGGAUCACCCAUGUAACAAACACGAACUCAUGU [Sesor Array 7 - Jieux - Sensor v3, turn-off variant 2] (puzzle: Sensor v3, turn-off variant 2) | – | – | – | 174 nM | 369 nM | 195 nM |
| ACACAACAUGAGGAUCACCCAUGUCAGGAUAUGCAGAAGAAGAAGAAGAGAAGAGAGAGCAGAAGGGACAACAC [Ex 1 M3] (puzzle: Exclusion 1) | – | – | – | 41.7 nM | 30 nM | 33.5 nM |
| ACACACACAGGAUAUCUUCCGCAUGACAUGAGGAUCACCCAUGUGUGCAUGCCCAAAAGUAGAGAAGGGUGUGUGU [eternacac ex5r4 #2] (Eterna round: R97, puzzle: Exclusion 5) | 26.2 nM | – | 29.2 nM | – | – | – |
| ACACUGCGAGGAUAUACAUGAGGAUCACCCAUGUUUCGGUAGACAAGGUUAAUUUAAGGUAGAAGGCGCGUAUU [JR_Ex3_Sub009] (Eterna round: R97, puzzle: Exclusion 3) | 173 nM | – | 40.2 nM | – | – | – |
| ACAGCGUGAGGAUAUACAUGAGGAUCACCCAUGUAUGGCAGGUUAUCCUGUCGUGAGUGUAGAAGGCACGCUGU [Exclusion 3 - Oddities v.5 ( A small slide from ms2 to fmn)] (puzzle: Exclusion 3) | – | – | – | – | 15.4 nM | – |
| ACAUAUGACUAGGAUAUCACUAGCGAUAGCUAGUGAGAAGGAGUCACAUGAGGAUCACCCAUGUGCUCCAAUAA [Mod5 Ex6/6-A4 by Brourd] (Eterna round: R97, puzzle: Exclusion 6) | 16.3 nM | – | 15.1 nM | – | – | – |
| ACAUGACCGCUAGGAUAUAGAUGACAUGAGGAUCACCCAUGUUGUCCCAUGUUGACGAUCACCGACUAGAAGGAGCCACCCAUG [ExNG2 5th] (Eterna round: R96, puzzle: Exclusion NG 2) | 53.4 nM | 34.6 nM | 52.5 nM | – | – | – |
| ACAUGAGGAUCACCCAUGUCAGGCGGGUCCUCUCCGGCUGUUGAGGAUAUAGUCCGGUAUCCGCGCUAGAAGGUGAGGGCCGGC [Aenatbe mod 18] (Eterna round: R96, puzzle: Exclusion NG 3) | 18.1 nM | 16.4 nM | 20.2 nM | – | – | – |
| ACAUGAGGAUCACCCAUGUCAGGCGGGUCCUCUCCGGCUGUUGAGGAUAUAGUUCGGUAUCCGCGCUAGAAGGUGAGGGCCGGC [Aenatbe mod 21] (Eterna round: R96, puzzle: Exclusion NG 3) | 15.1 nM | 9.99 nM | 17.1 nM | – | – | – |

| Sequence | apparent KD of MS2 coat protein (input ligand: FMN 200 uM) | apparent KD of MS2 coat protein [1] | apparent KD of MS2 coat protein (input ligand: none) | apparent KD of MS2 coat protein [2] | apparent KD of MS2 coat protein [3] | apparent KD of MS2 coat protein [4] |
| --- | --- | --- | --- | --- | --- | --- |
| ACAUGAGGAUCACCCAUGUCCGGCUGGUCCGUCUCGGCUGUCGAGGAUAUAGCUCGGUGUCCGCGCUAGAAGGCGGGAGCCGGC [Aenatbe mod 83] (Eterna round: R96, puzzle: Exclusion NG 3) | 91.5 nM | 64.7 nM | 73.4 nM | – | – | – |
| ACAUGAGGAUCACCCAUGUCCGGCUGGUCCGUUUCGGCUGUCGAGGAUAUAGUUCGGUGUCCGCGCUAGAAGGCGGGAGCCGGC [Aenatbe mod 62] (Eterna round: R96, puzzle: Exclusion NG 3) | 210 nM | 80.9 nM | 112 nM | – | – | – |
| ACAUGAGGAUCACCCAUGUCCGGCUGGUCUGUCUCGGCUGUCGAGGAUAUAGCUCGGUAUCCGCGCUAGAAGGCGGGAGCCGGU [Aenatbe mod 91] (Eterna round: R96, puzzle: Exclusion NG 3) | 76.7 nM | 29.4 nM | 48.8 nM | – | – | – |
| ACAUGAGGAUCACCCAUGUCUGGCUGGUCUGCUCCGGUUGUUGAGGAUAUAGUCCGGUGUUCGCGCUAGAAGGUGAGGGCUGGA [Aenatbe mod 40] (Eterna round: R96, puzzle: Exclusion NG 3) | 137 nM | 96.4 nM | 131 nM | – | – | – |
| ACAUGAGGAUCACCCAUGUCUGGCUGGUCUGUUCCGGCUGUCGAGGAUAUAGUCCGGUGUUCGCGCUAGAAGGUGAGGGCUGGA [Aenatbe mod 44] (Eterna round: R96, puzzle: Exclusion NG 3) | 153 nM | 68.6 nM | 87.4 nM | – | – | – |
| ACAUGAGGAUCACCCAUGUGAAACCAAUGGCUGACUUUGAGCUAGGAUAUUUGUGCAUAUCAAACAAAGAAGGAGCAUUACUGG [Deportation 98 - Jieux - Exclusion NG 3] (Eterna round: R96, puzzle: Exclusion NG 3) | – | 30.2 nM | – | – | – | – |
| ACAUGAGGAUCACCCAUGUGACAAUAAUGGCUGAUACAGAGACAGGAUAUAGGUGAAUAUCUAACCUAGAAGGGUCAUGACUGG [Deportation 71 - Jieux - Exclusion NG 3] (Eterna round: R96, puzzle: Exclusion NG 3) | 34.8 nM | 33 nM | 54 nM | – | – | – |
| ACAUGAGGAUCACCCAUGUGCACGUAAUGGCUCAUGUAGAGUGAGGAUAUGCGUGACGAACGAGCGCAGAAGGCACAAGACUGG [Deportation 16 - Jieux - Exclusion NG 3] (Eterna round: R96, puzzle: Exclusion NG 3) | 131 nM | 57.8 nM | 77.5 nM | – | – | – |
| ACAUGAGGAUCACCCAUGUUCGGCUGGUCCGUUUCGGCUGUCGAGGAUAUAGUUCGGUGUCCGCGCUAGAAGGCGGGAGCCGGC [Aenatbe mod 63] (Eterna round: R96, puzzle: Exclusion NG 3) | 153 nM | 54.5 nM | 78.5 nM | – | – | – |
| ACAUGUAAUGCAGGAUAUCGGACACAUGAGGAUCACCCAUGUGACCAGAGGUAUUGCUAAGAGUCUGAGAAGGGUAUGUACAUG [Ex NG2 #50] (Eterna round: R96, puzzle: Exclusion NG 2) | 20 nM | 17.5 nM | 19.1 nM | – | – | – |
| ACAUGUAAUGCAGGAUAUUUUACACAUGAGGAUCACCCAUGUGACCAGAGGAAUUGCUAUGAGUAGAAGAAGGGUAUGUACAUG [Ex NG2 #56] (Eterna round: R96, puzzle: Exclusion NG 2) | 78.8 nM | 56.7 nM | 64.4 nM | – | – | – |
| ACAUGUAUUGCAGGAUAUGGGACACAUGAGGAUCACCCAUGUGACUACAUGUCAUACCAAGCGUCUCAGAAGGGUAUGUACAUG [Ex NG2 #38] (Eterna round: R96, puzzle: Exclusion NG 2) | 21.3 nM | 15.8 nM | 18.5 nM | – | – | – |
| ACAUGUGUUGUAGGAUAUAGGAGACAUGAGGAUCACCCAUGUUGAUUCAUGUCUAUGGAAACGUCCUAGAAGGACGACAAUAUG [Ex NG2 #19] (Eterna round: R96, puzzle: Exclusion NG 2) | 283 nM | 179 nM | 272 nM | – | – | – |
| ACAUGUUAUGUAGGAUAUUGGACACAUGAGGAUCACCCAUGUACCCGGAGGCUUUACUAUGAGUUCGAGAAGGGUAUGUACAUG [Ex NG2 #69] (Eterna round: R96, puzzle: Exclusion NG 2) | 35.3 nM | 33.7 nM | 47.1 nM | – | – | – |
| ACCUUACAUGAGGAUCACCCAUGUCAGGAUAUCUCGGACAGCUGAAAACCAGCCGUCCAGAGAAGGGACGAGGA [Tiaza] (puzzle: Exclusion 1) | – | – | – | – | 12.8 nM | – |
| ACCUUACAUGAGGAUCACCCAUGUCAGGAUAUCUCGGGCGGCCAAGGGCCGGCCGCCCAGAGAAGGGACGAGGA [Inusla] (puzzle: Exclusion 1) | – | – | – | – | 12.1 nM | – |
